Source: US6465254, “Mutant loxP site and applications thereof” (Sumitomo Pharmaceuticals Company, Limited)
Changes are numbered by the printed parent chain.

B1: mutant loxP #21 (dsDNA)
DNA 1: ATAACTTCGTATAACGTATGCTATACGAAGTTAT
DNA 2: B1 DNA 1 with A14G, G16A, T19C, C21T
B2: mutant loxP #22 (dsDNA)
DNA 1: B1 DNA 1 with C15A
DNA 2: ATAACTTCGTATAGCATACTTTATACGAAGTTAT
B3: mutant loxP #72 (dsDNA)
DNA 1: B1 DNA 1 with C15T, G20C
DNA 2: B2 DNA 2 with C15G, T20A
B4: mutant loxP #81 (dsDNA)
DNA 1: B1 DNA 1 with C15T, C21T
DNA 2: B2 DNA 2 with G14A, T20A
B5: mutant loxP #73 (dsDNA)
DNA 1: B1 DNA 1 with C15T, G20T
DNA 2: B2 DNA 2 with C15A, T20A
B6: mutant loxP #4171 (dsDNA)
DNA 1: B1 DNA 1 with C15T, T17C, G20A
DNA 2: B2 DNA 2 with C15T, A18G, T20A
B7: mutant loxP #6171 (dsDNA)
DNA 1: B1 DNA 1 with C15T, T19C, G20A
DNA 2: B2 DNA 2 with C15T, A16G, T20A
B8: mutant loxP #5171 (dsDNA)
DNA 1: B1 DNA 1 with C15T, A18G, G20A
DNA 2: B2 DNA 2 with C15T, T17C, T20A
B9: mutant loxP #4172 (dsDNA)
DNA 1: B1 DNA 1 with C15T, T17C, G20C
DNA 2: B2 DNA 2 with C15G, A18G, T20A
B10: mutant loxP #2372 (dsDNA)
DNA 1: B1 DNA 1 with C15G, G20C
DNA 2: B2 DNA 2 with C15G, T20C
B11: mutant loxP #2271 (dsDNA)
DNA 1: B1 DNA 1 with C15A, G20A
DNA 2: B2 DNA 2 with C15T
B12: mutant loxP #32 (dsDNA)
DNA 1: B1 DNA 1 with C15T, G16C
DNA 2: B2 DNA 2 with C19G, T20A
B13: mutant loxP #33 (dsDNA)
DNA 1: B1 DNA 1 with C15T, G16T
DNA 2: B2 DNA 2 with C19A, T20A
B14: mutant loxP #12 (dsDNA)
DNA 1: B1 DNA 1 with A14T, C15T
DNA 2: B2 DNA 2 with T20A, T21A
B15: mutant loxP #23 (dsDNA)
DNA 1: B1 DNA 1 with C15G
DNA 2: B2 DNA 2 with T20C
B16: mutant loxP #3372 (dsDNA)
DNA 1: B1 DNA 1 with C15T, G16T, G20C
DNA 2: B2 DNA 2 with C15G, C19A, T20A
B17: mutant loxP #3373 (dsDNA)
DNA 1: B1 DNA 1 with C15T, G16T, G20T
DNA 2: B2 DNA 2 with C15A, C19A, T20A
B18: mutant loxP #2373 (dsDNA)
DNA 1: B1 DNA 1 with C15G, G20T
DNA 2: B2 DNA 2 with C15A, T20C
B19: mutant loxP #3272 (dsDNA)
DNA 1: B1 DNA 1 with C15T, G16C, G20C
DNA 2: B2 DNA 2 with C15G, C19G, T20A
B20: mutant loxP #42 (dsDNA)
DNA 1: B1 DNA 1 with C15T, T17A
DNA 2: B2 DNA 2 with A18T, T20A
B21: mutant loxP #31 (dsDNA)
DNA 1: B1 DNA 1 with C15T, G16A
DNA 2: B2 DNA 2 with C19T, T20A
B22: mutant loxP #43 (dsDNA)
DNA 1: B1 DNA 1 with C15T, T17G
DNA 2: B2 DNA 2 with A18C, T20A
B23: mutant loxP #5373 (dsDNA)
DNA 1: B1 DNA 1 with C15T, A18C, G20T
DNA 2: B2 DNA 2 with C15A, T17G, T20A
B24: mutant loxP #6272 (dsDNA)
DNA 1: B1 DNA 1 with C15T, T19A, G20C
DNA 2: B2 DNA 2 with C15G, A16T, T20A
B25: mutant loxP #6373 (dsDNA)
DNA 1: B1 DNA 1 with C15T, T19G, G20T
DNA 2: B2 DNA 2 with C15A, A16C, T20A
B26: mutant loxP #5272 (dsDNA)
DNA 1: B1 DNA 1 with C15T, A18T, G20C
DNA 2: B2 DNA 2 with C15G, T17A, T20A

These binders were tested against T1, Cre recombinase (UniProt P06956 P06956:1-343) (assay: self x self; intermediate 4). Details: tags: expressed from recombinant adenovirus AxCANCre in 293 cells.
T1 sequence (P06956 whole entry, one chain of several): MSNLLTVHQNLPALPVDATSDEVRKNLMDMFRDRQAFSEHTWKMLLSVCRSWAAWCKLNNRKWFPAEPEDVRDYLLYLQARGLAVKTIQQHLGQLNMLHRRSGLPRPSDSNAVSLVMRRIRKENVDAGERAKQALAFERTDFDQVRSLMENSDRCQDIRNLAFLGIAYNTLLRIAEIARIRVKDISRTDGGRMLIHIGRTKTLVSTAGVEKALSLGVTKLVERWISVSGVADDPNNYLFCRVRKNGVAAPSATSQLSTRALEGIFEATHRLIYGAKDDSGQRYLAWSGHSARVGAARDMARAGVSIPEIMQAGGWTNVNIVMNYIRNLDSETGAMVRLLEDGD
Method: (§1) Substrate DNA (1 μg) prepared in (3) and cell extract containing Cre (10 μl) prepared in (1) were incubated at 37° C. for 30 min in a 50 μl volume of buffer containing 50 mM Tris-HCl (pH 7.5)/10 mM MgCl2/1 mg/ml bovine serum albumin/1 mM phenylmethylsulfonyl fluoride (PMSF)/5 μg/ml aprotinin. After completion of the reaction, 45 μl of TE buffer (pH 8.0) and 5 μl of EDTA solution (pH 8.0) were added to the reaction mixture, extracted with phenol/chloroform and with chloroform, followed ethanol precipitation. The recovered DNA was dissolveld in 30 μl of TE buffer (pH 8.0) containing RNase A (20 μg/ml). Half volume thereof was digested with restriction enzyme BsaHI. The DNA bands detected by ethidium bromide (EtBr) staining after agarose gel electrophoresis, were analyzed.
(§2) Before recombination mediated by Cre, restriction enzyme BsaHI digestion of linear substrate DNA (approx. 4.1 kb) generates four bands of 2.7 kb, 610 bp, 380 bp and 360 bp. On the other hand, as a result of recombination of substrate DNA mediated by Cre, a circular DNA of approx. 4.0 kb containing one mutant loxP, and a linear DNA of approx. 50 bp consisting of only mutant loxP, are produced. Digestion of these DNA with restriction enzyme BsaHI generates four bands of 2.7 kb, 920 bp, 380 bp and 50 bp (refer to FIG. 6).
B1 was tested, and the activity was 5 grade 0-9 final product. Binder B2 has an activity of 5 grade 0-9 final product.

The binders below were run against T1, Cre recombinase (assay: self x self; intermediate 3). Details: tags: expressed from recombinant adenovirus AxCANCre in 293 cells.
Method: as §1, §2
B3 was tested, and the activity was 7 grade 0-9 final product. B4 gave an activity of 3 grade 0-9 final product. Binder B5 has an activity of 1 grade 0-9 final product.

The binders below were run against T1, Cre recombinase (assay: self x self; intermediate 0). Details: tags: expressed from recombinant adenovirus AxCANCre in 293 cells.
With B6 the activity was 4 grade 0-9 final product. Binder B7 has an activity of 6 grade 0-9 final product. B8 showed an activity of 6 grade 0-9 final product.

What follows are binders tested against T1, Cre recombinase (assay: self x self; intermediate 2). Details: tags: expressed from recombinant adenovirus AxCANCre in 293 cells.
B9 was tested, and the activity was 4 grade 0-9 final product. Work on B10 yielded an activity of 0 grade 0-9 final product. B11 gave an activity of 6 grade 0-9 final product.

These binders were tested against T1, Cre recombinase (assay: self x self; intermediate 6). Details: tags: expressed from recombinant adenovirus AxCANCre in 293 cells.
Method: as §1, §2
For B12, the activity was 3 grade 0-9 final product. B13 showed an activity of 6 grade 0-9 final product. Binder B14 has an activity of 3 grade 0-9 final product. Binder B15 has an activity of 5 grade 0-9 final product.

Molecular target: T1, Cre recombinase
Assay: self x self; intermediate 6
Details: tags: expressed from recombinant adenovirus AxCANCre in 293 cells
Remark: another data set of the same source
In the case of B16, the activity is reported as 1 grade 0-9 final product. B17 was tested, and the activity was 2 grade 0-9 final product. In the case of B18, the activity is reported as 1 grade 0-9 final product. B19 was tested, and the activity was 2 grade 0-9 final product.

These binders were tested against T1, Cre recombinase (assay: self x self; intermediate 5). Details: tags: expressed from recombinant adenovirus AxCANCre in 293 cells.
Method: as §1, §2
Binder B20 has an activity of 6 grade 0-9 final product. B21 was tested, and the activity was 7 grade 0-9 final product. B22 gave an activity of 6 grade 0-9 final product.

The binders below were run against T1, Cre recombinase (assay: self x self; intermediate 1). Details: tags: expressed from recombinant adenovirus AxCANCre in 293 cells.
B23 was tested, and the activity was 2 grade 0-9 final product. In the case of B24, the activity is reported as 2 grade 0-9 final product. B25 gave an activity of 2 grade 0-9 final product. B26 showed an activity of 4 grade 0-9 final product.
